Results reported in patent publication US20220363770A1 (Amgen, published 2022).

T1: human PAC1 receptor (human, UniProt P41586 24-468)
T1 sequence: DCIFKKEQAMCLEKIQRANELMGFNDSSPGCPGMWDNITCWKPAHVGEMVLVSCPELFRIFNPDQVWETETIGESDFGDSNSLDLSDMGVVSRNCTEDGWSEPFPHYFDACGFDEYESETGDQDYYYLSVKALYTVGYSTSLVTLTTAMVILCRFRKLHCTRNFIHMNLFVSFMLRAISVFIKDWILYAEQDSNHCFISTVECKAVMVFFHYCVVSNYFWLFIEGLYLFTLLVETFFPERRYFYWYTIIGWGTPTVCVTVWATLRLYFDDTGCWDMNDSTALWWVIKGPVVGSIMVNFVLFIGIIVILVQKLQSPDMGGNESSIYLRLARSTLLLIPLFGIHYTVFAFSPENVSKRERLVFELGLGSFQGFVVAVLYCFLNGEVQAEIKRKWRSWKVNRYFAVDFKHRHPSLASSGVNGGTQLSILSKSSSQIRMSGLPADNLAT


Key:
[1] = target: human CGRP receptor (human, UniProt Q16602 23-461; O60894 27-148); assay: cell-based or functional assay
[2] = target: T1, human PAC1 receptor; assay: cell-based or functional assay

Sequence of human CGRP receptor (Q16602 23-461 limits assumed, chain 1 of 2): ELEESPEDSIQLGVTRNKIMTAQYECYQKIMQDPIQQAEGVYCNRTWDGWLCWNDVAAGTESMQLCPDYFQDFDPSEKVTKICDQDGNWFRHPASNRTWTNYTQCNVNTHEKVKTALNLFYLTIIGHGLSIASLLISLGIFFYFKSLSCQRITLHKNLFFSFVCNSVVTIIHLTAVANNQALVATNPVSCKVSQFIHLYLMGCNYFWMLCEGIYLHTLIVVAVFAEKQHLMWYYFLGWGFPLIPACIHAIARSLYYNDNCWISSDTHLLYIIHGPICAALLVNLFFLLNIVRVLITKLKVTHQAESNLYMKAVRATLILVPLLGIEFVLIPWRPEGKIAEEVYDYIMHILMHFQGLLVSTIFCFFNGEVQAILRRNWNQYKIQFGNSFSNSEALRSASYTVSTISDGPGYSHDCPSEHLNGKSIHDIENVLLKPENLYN
Sequence of human CGRP receptor (O60894 27-148 limits assumed, chain 2 of 2): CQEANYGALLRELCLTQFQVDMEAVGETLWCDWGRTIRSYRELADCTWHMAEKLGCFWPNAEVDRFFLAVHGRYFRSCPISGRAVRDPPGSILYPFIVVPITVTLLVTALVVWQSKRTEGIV

Row | Binder | Fold-improvement over 4E4 Ab [1] [fold] | IC50 [1] [nM] | Fold-improvement over 29G4v22 Ab [2] [fold] | IC50 [2] [nM]
1 | iPS:454753 (bispecific antibody, human IgG1, kappa, lambda, N297G) light 1: QSVLTQPPSVSAAPGQKVTISCSGSYSNIGRYSVSWYQQLPGTAPKLLIYDNNKRPSGIPDRFSGSKSGTSATLGITGLQTGDEADYYCGTWDSRLSAVVFGGGTKLTVLGQPKAAPSVTLFPPSSEELQANKATLVCLISDFYPGAVTVAWKADSSPVKAGVETTTPSKQSNNKYAAKSYLSLTPEQWKSHRSYSCQVTHEGSTVEKTVAPTECS heavy 1: QVQLVESGGGVVQPGRSLRLSCAASGFTFSSFGMHWVRQAPGKGLEWVAVISFDGSIKYSVDSVKGRFTISRDNSKNTLFLQMNSLRAEDTAVYYCARDRLNYYESSGYYHYKYYGMAVWGQGTTVTVSSASTKGPSVFPLAPSSKSTSGGTAALGCLVKDYFPEPVTVSWNSGALTSGVHTFPAVLQSSGLYSLESVVTVPSSSLGTQTYICNVNHKPSNTKVDKKVEPKSCDKTHTCPPCPAPELLGGPSVFLFPPKPKDTLMISRTPEVTCVVVDVSHEDPEVKFNWYVDGVEVHNAKTKPCEEQYGSTYRCVSVLTVLHQDWLNGKEYKCKVSNKALPAPIEKTISKAKGQPREPQVYTLPPSRKKMTKNQVSLTCLVKGFYPSDIAVEWESNGQPENNYKTTPPVLKSDGSFFLYSKLTVDKSRWQQGNVFSCSVMHEALHNHYTQKSLSLSPGK light 2: EIVLTQSPATLSLSPGERATLSCRASKSVGRSLHWYQQKPGQAPRLLIKYASQSLSGIPARFSGSGSGTDFTLTISSLEPEDFAVYYCHQSSRLPFTFGPGTKVDIKRTVAAPSVFIFPPSDEQLKSGTASVVCLLNNFYPREAKVQWKVDNALQSGNSQESVTEQDSKDSTYSLESTLTLSKADYEKHKVYACEVTHQGLSSPVTKSFNRGEC heavy 2: not shown | 1.3 | 0.37 | 10.4 | 0.61
2 | iPS:454755 (bispecific antibody, human IgG1, kappa, lambda, N297G) light 1: QSVLTQPPSVSAAPGQKVTISCSGSYSNIGRYSVSWYQQLPGTAPKLLIYDNNKRPSGIPDRFSGSKSGTSATLGITGLQTGDEADYYCGTWDSRLSAVVFGGGTKLTVLGQPKAAPSVTLFPPSSEELQANKATLVCLISDFYPGAVTVAWKADSSPVKAGVETTTPSKQSNNKYAAKSYLSLTPEQWKSHRSYSCQVTHEGSTVEKTVAPTECS heavy 1: QVQLVESGGGVVQPGRSLRLSCAASGFTFSSFGMHWVRQAPGKGLEWVAVISFDGSIKYSVDSVKGRFTISRDNSKNTLFLQMNSLRAEDTAVYYCARDRLNYYESSGYYHYKYYGMAVWGQGTTVTVSSASTKGPSVFPLAPSSKSTSGGTAALGCLVKDYFPEPVTVSWNSGALTSGVHTFPAVLQSSGLYSLESVVTVPSSSLGTQTYICNVNHKPSNTKVDKKVEPKSCDKTHTCPPCPAPELLGGPSVFLFPPKPKDTLMISRTPEVTCVVVDVSHEDPEVKFNWYVDGVEVHNAKTKPCEEQYGSTYRCVSVLTVLHQDWLNGKEYKCKVSNKALPAPIEKTISKAKGQPREPQVYTLPPSRKKMTKNQVSLTCLVKGFYPSDIAVEWESNGQPENNYKTTPPVLKSDGSFFLYSKLTVDKSRWQQGNVFSCSVMHEALHNHYTQKSLSLSPGK light 2: EIVLTQSPATLSLSPGERATLSCRASKSVGRSLHWYQQKPGQAPRLLIKYASQSLSGIPARFSGSGSGTDFTLTISSLEPEDFAVYYCHQSSRLPFTFGPGTKVDIKRTVAAPSVFIFPPSDEQLKSGTASVVCLLNNFYPREAKVQWKVDNALQSGNSQESVTEQDSKDSTYSLESTLTLSKADYEKHKVYACEVTHQGLSSPVTKSFNRGEC heavy 2: not shown | 1.8 | 0.27 | 9.2 | 0.69
3 | iPS:454757 (bispecific antibody, human IgG1, kappa, lambda, N297G) light 1: QSVLTQPPSVSAAPGQKVTISCSGSYSNIGRYSVSWYQQLPGTAPKLLIYDNNKRPSGIPDRFSGSKSGTSATLGITGLQTGDEADYYCGTWDSRLSAVVFGGGTKLTVLGQPKAAPSVTLFPPSSEELQANKATLVCLISDFYPGAVTVAWKADSSPVKAGVETTTPSKQSNNKYAAKSYLSLTPEQWKSHRSYSCQVTHEGSTVEKTVAPTECS heavy 1: QVQLVESGGGVVQPGRSLRLSCAASGFTFSSFGMHWVRQAPGKGLEWVAVISFDGSIKYSVDSVKGRFTISRDNSKNTLFLQMNSLRAEDTAVYYCARDRLNYYESSGYYHYKYYGMAVWGQGTTVTVSSASTKGPSVFPLAPSSKSTSGGTAALGCLVKDYFPEPVTVSWNSGALTSGVHTFPAVLQSSGLYSLESVVTVPSSSLGTQTYICNVNHKPSNTKVDKKVEPKSCDKTHTCPPCPAPELLGGPSVFLFPPKPKDTLMISRTPEVTCVVVDVSHEDPEVKFNWYVDGVEVHNAKTKPCEEQYGSTYRCVSVLTVLHQDWLNGKEYKCKVSNKALPAPIEKTISKAKGQPREPQVYTLPPSRKKMTKNQVSLTCLVKGFYPSDIAVEWESNGQPENNYKTTPPVLKSDGSFFLYSKLTVDKSRWQQGNVFSCSVMHEALHNHYTQKSLSLSPGK light 2: EIVLTQSPATLSLSPGERATLSCRASKSVGRSLHWYQQKPGQAPRLLIKYASQSLSGIPARFSGSGSGTDFTLTISSLEPEDFAVYYCHQSSRLPFTFGPGTKVDIKRTVAAPSVFIFPPSDEQLKSGTASVVCLLNNFYPREAKVQWKVDNALQSGNSQESVTEQDSKDSTYSLESTLTLSKADYEKHKVYACEVTHQGLSSPVTKSFNRGEC heavy 2: not shown | 1.4 | 0.43 | 9.2 | 0.68

The next lines start with the values.

Row | Fold-improvement over 4E4 Ab [1] [fold] | IC50 [1] [nM] | Fold-improvement over 29G4v22 Ab [2] [fold] | IC50 [2] [nM] | Binder
4 | 1.5 | 0.39 | 8.5 | 0.74 | iPS:454759 (bispecific antibody, human IgG1, kappa, lambda, N297G) light 1: QSVLTQPPSVSAAPGQKVTISCSGSYSNIGRYSVSWYQQLPGTAPKLLIYDNNKRPSGIPDRFSGSKSGTSATLGITGLQTGDEADYYCGTWDSRLSAVVFGGGTKLTVLGQPKAAPSVTLFPPSSEELQANKATLVCLISDFYPGAVTVAWKADSSPVKAGVETTTPSKQSNNKYAAKSYLSLTPEQWKSHRSYSCQVTHEGSTVEKTVAPTECS heavy 1: QVQLVESGGGVVQPGRSLRLSCAASGFTFSSFGMHWVRQAPGKGLEWVAVISFDGSIKYSVDSVKGRFTISRDNSKNTLFLQMNSLRAEDTAVYYCARDRLNYYESSGYYHYKYYGMAVWGQGTTVTVSSASTKGPSVFPLAPSSKSTSGGTAALGCLVKDYFPEPVTVSWNSGALTSGVHTFPAVLQSSGLYSLESVVTVPSSSLGTQTYICNVNHKPSNTKVDKKVEPKSCDKTHTCPPCPAPELLGGPSVFLFPPKPKDTLMISRTPEVTCVVVDVSHEDPEVKFNWYVDGVEVHNAKTKPCEEQYGSTYRCVSVLTVLHQDWLNGKEYKCKVSNKALPAPIEKTISKAKGQPREPQVYTLPPSRKKMTKNQVSLTCLVKGFYPSDIAVEWESNGQPENNYKTTPPVLKSDGSFFLYSKLTVDKSRWQQGNVFSCSVMHEALHNHYTQKSLSLSPGK light 2: EIVLTQSPATLSLSPGERATLSCRASKSVGRSLHWYQQKPGQAPRLLIKYASQSLSGIPARFSGSGSGTDFTLTISSLEPEDFAVYYCHQSSRLPFTFGPGTKVDIKRTVAAPSVFIFPPSDEQLKSGTASVVCLLNNFYPREAKVQWKVDNALQSGNSQESVTEQDSKDSTYSLESTLTLSKADYEKHKVYACEVTHQGLSSPVTKSFNRGEC heavy 2: not shown
5 | 1.4 | 0.42 | 6.4 | 0.97 | iPS:454761 (bispecific antibody, human IgG1, kappa, lambda, N297G) light 1: QSVLTQPPSVSAAPGQKVTISCSGSYSNIGRYSVSWYQQLPGTAPKLLIYDNNKRPSGIPDRFSGSKSGTSATLGITGLQTGDEADYYCGTWDSRLSAVVFGGGTKLTVLGQPKAAPSVTLFPPSSEELQANKATLVCLISDFYPGAVTVAWKADSSPVKAGVETTTPSKQSNNKYAAKSYLSLTPEQWKSHRSYSCQVTHEGSTVEKTVAPTECS heavy 1: QVQLVESGGGVVQPGRSLRLSCAASGFTFSSFGMHWVRQAPGKGLEWVAVISFDGSIKYSVDSVKGRFTISRDNSKNTLFLQMNSLRAEDTAVYYCARDRLNYYESSGYYHYKYYGMAVWGQGTTVTVSSASTKGPSVFPLAPSSKSTSGGTAALGCLVKDYFPEPVTVSWNSGALTSGVHTFPAVLQSSGLYSLESVVTVPSSSLGTQTYICNVNHKPSNTKVDKKVEPKSCDKTHTCPPCPAPELLGGPSVFLFPPKPKDTLMISRTPEVTCVVVDVSHEDPEVKFNWYVDGVEVHNAKTKPCEEQYGSTYRCVSVLTVLHQDWLNGKEYKCKVSNKALPAPIEKTISKAKGQPREPQVYTLPPSRKKMTKNQVSLTCLVKGFYPSDIAVEWESNGQPENNYKTTPPVLKSDGSFFLYSKLTVDKSRWQQGNVFSCSVMHEALHNHYTQKSLSLSPGK light 2: EIVLTQSPATLSLSPGERATLSCRASKSVGRSLHWYQQKPGQAPRLLIKYASQSLSGIPARFSGSGSGTDFTLTISSLEPEDFAVYYCHQSSRLPFTFGPGTKVDIKRTVAAPSVFIFPPSDEQLKSGTASVVCLLNNFYPREAKVQWKVDNALQSGNSQESVTEQDSKDSTYSLESTLTLSKADYEKHKVYACEVTHQGLSSPVTKSFNRGEC heavy 2: not shown
6 | 1.5 | 0.32 | 8.5 | 0.75 | iPS:454763 (bispecific antibody, human IgG1, kappa, lambda, N297G) light 1: QSVLTQPPSVSAAPGQKVTISCSGSYSNIGRYSVSWYQQLPGTAPKLLIYDNNKRPSGIPDRFSGSKSGTSATLGITGLQTGDEADYYCGTWDSRLSAVVFGGGTKLTVLGQPKAAPSVTLFPPSSEELQANKATLVCLISDFYPGAVTVAWKADSSPVKAGVETTTPSKQSNNKYAAKSYLSLTPEQWKSHRSYSCQVTHEGSTVEKTVAPTECS heavy 1: QVQLVESGGGVVQPGRSLRLSCAASGFTFSSFGMHWVRQAPGKGLEWVAVISFDGSIKYSVDSVKGRFTISRDNSKNTLFLQMNSLRAEDTAVYYCARDRLNYYESSGYYHYKYYGMAVWGQGTTVTVSSASTKGPSVFPLAPSSKSTSGGTAALGCLVKDYFPEPVTVSWNSGALTSGVHTFPAVLQSSGLYSLESVVTVPSSSLGTQTYICNVNHKPSNTKVDKKVEPKSCDKTHTCPPCPAPELLGGPSVFLFPPKPKDTLMISRTPEVTCVVVDVSHEDPEVKFNWYVDGVEVHNAKTKPCEEQYGSTYRCVSVLTVLHQDWLNGKEYKCKVSNKALPAPIEKTISKAKGQPREPQVYTLPPSRKKMTKNQVSLTCLVKGFYPSDIAVEWESNGQPENNYKTTPPVLKSDGSFFLYSKLTVDKSRWQQGNVFSCSVMHEALHNHYTQKSLSLSPGK light 2: EIVLTQSPATLSLSPGERATLSCRASQSVGRSLHWYQQKPGQAPRLLIKYASQSLSGIPARFSGSGSGTDFTLTISSLEPEDFAVYYCHQSSRLPFTFGPGTKVDIKRTVAAPSVFIFPPSDEQLKSGTASVVCLLNNFYPREAKVQWKVDNALQSGNSQESVTEQDSKDSTYSLESTLTLSKADYEKHKVYACEVTHQGLSSPVTKSFNRGEC heavy 2: not shown
